T1: IL-4 receptor αγc heterodimer (IL-4Rαγc) (human, UniProt P24394 26-232; P31785 23-254, limits assumed, biotinylated at the C-terminal biotin acceptor peptide (BirA))
T1 construct: also called γc when IL-4Rα is present in solution
T1 sequence 1: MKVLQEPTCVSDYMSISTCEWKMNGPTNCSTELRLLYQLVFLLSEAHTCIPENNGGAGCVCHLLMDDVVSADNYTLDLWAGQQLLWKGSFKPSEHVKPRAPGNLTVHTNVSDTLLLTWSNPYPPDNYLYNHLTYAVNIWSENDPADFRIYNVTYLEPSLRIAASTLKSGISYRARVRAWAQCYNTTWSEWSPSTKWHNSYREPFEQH
T1 sequence 2: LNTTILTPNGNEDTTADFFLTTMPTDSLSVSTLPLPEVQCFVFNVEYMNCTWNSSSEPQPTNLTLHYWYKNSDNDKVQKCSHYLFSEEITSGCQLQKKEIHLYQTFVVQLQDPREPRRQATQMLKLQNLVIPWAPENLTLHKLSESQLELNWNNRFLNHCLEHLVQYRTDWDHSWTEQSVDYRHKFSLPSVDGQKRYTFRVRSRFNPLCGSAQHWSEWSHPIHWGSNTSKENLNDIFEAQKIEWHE

T2: human IL-4Rα (human, UniProt P24394 26-232, limits assumed, biotinylated)
T2 construct: also called IL-4Rα receptor
T2 sequence (looked up): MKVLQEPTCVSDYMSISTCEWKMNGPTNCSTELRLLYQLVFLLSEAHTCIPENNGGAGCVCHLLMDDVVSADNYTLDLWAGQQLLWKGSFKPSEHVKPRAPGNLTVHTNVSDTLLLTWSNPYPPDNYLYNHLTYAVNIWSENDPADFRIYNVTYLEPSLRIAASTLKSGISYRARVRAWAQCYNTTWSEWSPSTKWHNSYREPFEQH


Tests used:
[1] = biological target: murine IL-2 receptor βγc heterodimer (mIL-2Rβγc) (mouse) (UniProt P16297); assay: SPR; mIL-2Rγ immobilised, saturating mIL-2Rβ in solution
[2] = biological target: murine IL-2Rβ (mIL-2Rβ) (mouse) (UniProt P16297); assay: SPR; mIL-2Rβ immobilised
[3] = biological target: human IL-2Rβ (hIL-2Rβ) (human) (UniProt P14784); assay: SPR; hIL-2Rβ immobilised
Chain of human IL-2Rβ (hIL-2Rβ) (human) (P14784 other isoform, or with tags, fused parts or gaps): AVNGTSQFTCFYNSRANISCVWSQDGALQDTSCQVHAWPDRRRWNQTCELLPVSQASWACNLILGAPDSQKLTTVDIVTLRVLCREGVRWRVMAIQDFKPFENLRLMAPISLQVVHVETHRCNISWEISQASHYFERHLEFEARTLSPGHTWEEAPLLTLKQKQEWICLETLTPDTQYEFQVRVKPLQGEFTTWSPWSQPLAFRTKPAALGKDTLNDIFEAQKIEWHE

[4] = biological target: human IL-2Rβγc on YT-1 human natural killer cells (human) (UniProt P14784); assay: cell-based or functional assay
Chain of human IL-2Rβγc on YT-1 human natural killer cells (human) (P14784 27-551): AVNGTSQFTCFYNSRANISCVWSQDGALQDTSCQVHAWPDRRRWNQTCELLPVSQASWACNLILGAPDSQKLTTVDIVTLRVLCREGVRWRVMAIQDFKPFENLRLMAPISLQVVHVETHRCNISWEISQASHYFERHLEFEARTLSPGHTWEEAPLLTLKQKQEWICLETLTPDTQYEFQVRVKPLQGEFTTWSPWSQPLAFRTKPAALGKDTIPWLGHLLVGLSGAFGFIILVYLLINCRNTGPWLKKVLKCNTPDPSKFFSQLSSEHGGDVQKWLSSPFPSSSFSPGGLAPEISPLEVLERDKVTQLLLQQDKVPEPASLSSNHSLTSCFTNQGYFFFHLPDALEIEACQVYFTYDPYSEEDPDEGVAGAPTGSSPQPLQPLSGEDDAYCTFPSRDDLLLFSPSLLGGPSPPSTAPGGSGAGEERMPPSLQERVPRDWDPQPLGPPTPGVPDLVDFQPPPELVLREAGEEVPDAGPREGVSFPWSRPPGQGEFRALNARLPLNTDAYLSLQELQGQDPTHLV

[5] = biological target: human IL-2 receptor βγc heterodimer (hIL-2Rβγc) (human) (UniProt P14784); assay: SPR; hIL-2Rγ immobilised, saturating hIL-2Rβ in solution
Chain of human IL-2 receptor βγc heterodimer (hIL-2Rβγc) (human) (P14784 27-240, one chain of several): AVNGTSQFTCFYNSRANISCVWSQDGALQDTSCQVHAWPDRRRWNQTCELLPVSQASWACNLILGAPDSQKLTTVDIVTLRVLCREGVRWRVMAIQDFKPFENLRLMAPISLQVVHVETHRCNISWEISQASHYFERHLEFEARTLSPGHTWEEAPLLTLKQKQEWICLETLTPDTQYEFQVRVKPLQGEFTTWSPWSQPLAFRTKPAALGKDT

[6] = biological target: IL-2Rβγc (species not stated); assay: biolayer interferometry
Chain of IL-2Rβγc (species not stated) (P14784 whole entry, chain 1 of 2): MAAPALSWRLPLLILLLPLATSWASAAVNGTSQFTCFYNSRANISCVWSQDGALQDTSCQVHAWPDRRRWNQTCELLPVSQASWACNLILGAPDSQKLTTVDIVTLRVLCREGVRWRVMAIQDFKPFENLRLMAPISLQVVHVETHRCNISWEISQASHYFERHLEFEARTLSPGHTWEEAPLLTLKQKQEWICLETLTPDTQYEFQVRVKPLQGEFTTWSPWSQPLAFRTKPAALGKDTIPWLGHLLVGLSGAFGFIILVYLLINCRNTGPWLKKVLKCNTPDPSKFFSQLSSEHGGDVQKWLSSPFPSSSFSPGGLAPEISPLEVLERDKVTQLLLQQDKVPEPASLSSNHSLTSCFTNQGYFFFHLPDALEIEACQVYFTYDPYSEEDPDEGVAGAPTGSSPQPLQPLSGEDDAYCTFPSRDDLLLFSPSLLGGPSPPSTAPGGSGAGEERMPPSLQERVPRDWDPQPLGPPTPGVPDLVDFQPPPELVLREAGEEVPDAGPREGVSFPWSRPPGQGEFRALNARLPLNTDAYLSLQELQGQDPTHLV
Chain of IL-2Rβγc (species not stated) (P31785 whole entry, chain 2 of 2, further chain): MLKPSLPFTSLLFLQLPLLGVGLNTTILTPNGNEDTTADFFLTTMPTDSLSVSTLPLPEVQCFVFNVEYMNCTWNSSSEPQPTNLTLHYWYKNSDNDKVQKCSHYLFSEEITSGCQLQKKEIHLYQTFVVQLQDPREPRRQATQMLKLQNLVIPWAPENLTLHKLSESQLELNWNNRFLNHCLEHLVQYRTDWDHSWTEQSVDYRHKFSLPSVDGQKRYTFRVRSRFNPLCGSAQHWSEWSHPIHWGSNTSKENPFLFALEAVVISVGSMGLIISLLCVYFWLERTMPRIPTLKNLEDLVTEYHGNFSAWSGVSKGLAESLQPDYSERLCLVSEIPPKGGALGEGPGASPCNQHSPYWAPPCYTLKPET

[7] = biological target: murine IL-2 receptor βγc heterodimer (mIL-2Rβγc) (mouse) (UniProt P16297); assay: biolayer interferometry; biotin-mIL2Gamma on streptavidin sensor, MSA-Neo2 titrated 729 to 1 nM with saturating mIL2Beta
[8] = biological target: T1, IL-4 receptor αγc heterodimer (IL-4Rαγc); assay: biolayer interferometry; γc on sensor, IL-4Rα in solution
Protocol: Less than 100 response units (RU) of each ligand was immobilized to minimize mass transfer effects. […] Surface regeneration for all interactions was conducted using 15 s exposure to 1 M MgCl2 in 10 mM sodium acetate pH 5.5. SPR experiments were carried out in HBS-P+ buffer (GE Healthcare) supplemented with 0.2% bovine serum albumin (BSA) at 25° C. and all binding studies were performed at a flow rate of […] to prevent analyte rebinding. Data was visualized and processed using the Biacore T100 evaluation software version 2.0 (GE Healthcare). Equilibrium titration curve fitting and equilibrium binding dissociation (KD) value determination was implemented using GraphPad Prism assuming all binding interactions to be first order. Biolayer interferometry: binding data were collected in a Octet RED96 (ForteBio, Menlo Park, Calif.) and processed using the instrument's integrated software using a 1:1 binding model. […] Analyte proteins were diluted from concentrated stocks into binding buffer.

[9] = biological target: T2, human IL-4Rα; assay: biolayer interferometry

| Molecule | Kd [1] [nM] | Kd [2] [nM] | also measured |
| --- | --- | --- | --- |
| Neoleukin-2/15 (i.e. G2_neo2_40_1F_seq36_S11) (designed binder) | 38.4 | 16.1 |  |
| Super-2/Superkine (PDB:3QAZ) (ligand) | 312 | 214 | Kd [3]: 2 nM; EC50 (CD25-) pSTAT5, human NK (YT, CD25-) cells [4]: 0.07 nM; Kd [5]: 301 nM |
| human IL-2 (hIL-2) (from UniProt P60568 21-153) (ligand) | 492 | 8110 |  |
| mouse IL-2 (mIL-2) (ligand, UniProt P04351 21-169, looked up) APTSSSTSSSTAEAQQQQQQQQQQQQHLEQLLMDLQELLSRMENYRNLKLPRMLTFKFYLPKQATELKDLQCLEDELGPLRHVLDLTQSKSFQLEDAENFISNIRVTVVKLKGSDNTFECQFDDESATVVDFLRRWIAFCQSIISTSPQ | 126 | 1500 |  |
| G1_neo2_40_1F (designed binder) STKKTQLLAEHALLDALMMLNLLPEPNEKLNRIITTMQSWIFTGKIDGDGAQELAKEVEELEQEHEKRGIDVEDYASNLKVILLELA | 7.9 | 486 |  |
| G1_neo2_40_1F_H1 (designed binder) STKKTQLLIEHALLDALDMSRNLPEPNEKLSRIITTMQSWIFTGKIDGDGAQQLAKEVEELEQEHEKRGEDVEDEASNLKVILLELA | 2650 | 6800 |  |
| G1_neo2_40_1F_H2 (designed binder) STKKTQLLLEHALLDALHMRRNLPEPNEKLSRIITTMQSWIFTGKIDGDGAQELAKEVEELEQEHEKRGRDVEDDASNLKVILLELA | 964 | 68300 |  |
| G1_neo2_40_1F_H3 (designed binder) STKKTQLLIEHALLDALNMRKKLPEPNEKLSRIITDMQSWIFTGKIDGDGAQQLAKEVEELEQEHEKRGGDVEDYASNLKVILLELA | 3830 |  |  |
| G1_neo2_40_1F_H4 (designed binder) STKKTQLLLEHALLDALHMSRELPEPNEKLNRIITDMQSWIFTGKIDGDGAQDLAKEVEELEQEHEKRGGDVEDYASNLKVILLELA | 392 | 10100 |  |
| G1_neo2_40_1F_H5 (designed binder) STKKTQLLIEHALLDALHMSRKLPEPNEKLSRIITTMQSWIFTGKIDGDGAQHLAKEVEELEQEHEKRGGEVEDEASNLKVILLELA | 5120 | 45300 |  |
| G1_neo2_40_1F_M1 (designed binder) STEKTQLAAEHALRDALMLKHLLNEPNEKLARIITTMQSWQFTGKIDGDGAQELAKEVEELQQEHEVRGIDVEDYASNLKVILLHLA | 4.3 | 214 |  |
| G1_neo2_40_1F_M2 (designed binder) STKNTQLAAEDALLDALMLRNLLNEPNEKLARIITTMQSWQFTEKIDGDGAQELAKEVEELQQEHEERGIDVEDYASNLKVILLQLA | 886 | 2600 |  |
| G1_neo2_40_1F_M3 (designed binder) STEKTQHAAEDALRDALMLRNLLNEPNEKLARIITTMQSWQFTEKIDGDGAQELAKEVEELQQEHEVRGIDVEDYASNLKVILLQLA | 64.8 | 402 |  |
| G2_neo2_40_1F_seq04 (designed binder) TTKKIQLLVEHALLDALMILNLSSESNEKLNRIITTLQSWIFRGEIDPDRARELAKLLEEIREEMRKRGIDTEDYVSNMIVIIRELA | 80 |  |  |
| G2_neo2_40_1F_seq12 (designed binder) TEKKLQLLVEHALLDALMILNLWSESNEKLNRIITTMQSWIFTGRIDPDKAEELAKLVEELREEARERGIDTEDYVSNLKVILKELS | 39.1 |  |  |
| G2_neo2_40_1F_seq16 (designed binder) TKKKIQLLVEHALLDALMILNLSSKSNEKLNRIITTMQSWIFNGTIDPDRARELAKLVEEIRDEMEKNGIDTEDYVSNLKVILEELA | 71.5 |  |  |
| G2_neo2_40_1F_seq26 (designed binder) TKKKYQLLIEHALLDALMILNLWSESNEKLNRIITTMQSWIFTGTYDPDKAEELEKLAKEIEDEARERGIDTEDYMSNLRVILKELS | 27.8 |  |  |
| G2_neo2_40_1F_seq27 (designed binder) TKKKAQLLAEHALLDALMLLNLSSESNERLNRIITWLQSIIFTGTYDPDMVKEAVKLADEIEDEMRKRGIDTEDYVSNLRVILQELA | 13.6 |  |  |
| G2_neo2_40_1F_seq29 (designed binder) EDYYSNLKVILEELAREMERNGLSDKAEEWRQWKKIVERIRQIRSNNSDLNEAKELLNRLITYIQSQIFEISERIRETDQEKKEESWKKWQLLLEHALLDVLMLLND | 38.2 |  |  |
| G2_neo2_40_1F_seq30 (designed binder) PEKKRQLLLEHILLDALMLLNLLETNPQNTESKFEDYISNAEVIAEELAKLMESLGLSDEAEKFKKIKQWLREVWRIWSSTNWSTLEDKARELLNRIITTIQSQIFY | 925 |  |  |
| G2_neo2_40_1F_seq36 (designed binder) PKKKIQLLAEHALLDALMILNIVKTNSQNAEEKLEDYASNVEVILEEIARLMESGDQKDEAEKAKRMKEWMKRIKTTASEDEQEEMANRIITLLQSWIFS | 568 | 2430 |  |
| G2_neo2_40_1F_seq40 (designed binder) PEKKRQLLAEHALLDALMILNIIRTNSDNTESKLEDYISNLKVILEEIARLMESLGLSDEAEKAKEAMRLADKAGSTASEEEKKEAMNRVITWAQSWIFN | 69.2 |  |  |
| Neoleukin-2/15 internal disulfide-stapled variant (disulfide between residues 38 and 75) (designed binder, disulfide bond between residues 38 and 75) PKKKIQLHAEHALYDALMILNIVKTNSPPAEEKLEDYCFNFELILEEIARLFESGDQKDEAEKAKRMKEWMKRICTTASEDEQEEMANAIITILQSWIFS |  |  | Kd [6]: 1.3 nM |
| Neoleukin-2/15 terminal disulfide-stapled variant (CNSN and NFQC added at the termini) (designed binder, disulfide bond between the added N-terminal and C-terminal cysteines) CNSNKKKIQLHAEHALYDALMILNIVKTNSPPAEEKLEDYAFNFELILEEIARLFESGDQKDEAEKAKRMKEWMKRIKTTASEDEQEEMANAIITILQSWIFNFQC |  |  | Kd [6]: 1.8 nM |
| Mouse Serum Albumin (MSA) fusion to Neoleukin-2/15 (protein) GSDGGSHHHHHHGSGSENLYFQGSGEAHKSEIAHRYNDLGEQHFKGLVLIAFSQYLQKCSYDEHAKLVQEVTDFAKTCVADESAANCDKSLHTLFGDKLCAIPNLRENYGELADCCTKQEPERNECFLQHKDDNPSLPPFERPEAEAMCTSFKENPTTFMGHYLHEVARRHPYFYAPELLYYAEQYNEILTQCCAEADKESCLTPKLDGVKEKALVSSVRQRMKCSSMQKFGERAFKAWAVARLSQTFPNADFAEITKLATDLTKVNKECCHGDLLECADDRAELAKYMCENQATISSKLQTCCDKPLLKKAHCLSEVEHDTMPADLPAIAADFVEDQEVCKNYAEAKDVFLGTFLYEYSRRHPDYSVSLLLRLAKKYEATLEKCCAEANPPACYGTVLAEFQPLVEEPKNLVKTNCDLYEKLGEYGFQNAILVRYTQKAPQVSTPTLVEAARNLGRVGTKCCTLPEDQRLPCVEDYLSAILNRVCLLHEKTPVSEHVTKCCSGSLVERRPCFSALTVDETYVPKEFKAETFTFHSDICTLPEKEKQIKKQTALAELVKHKPKATAEQLKTVMDDFAQFLDTCCKAADKDTCFSTEGPNLVTRCKDALAGGGSGGSGGGSGGSGSGPKKKIQLHAEHALYDALMILNIVKTNSPPAEEKLEDYAFNFELILEEIARLFESGDQKDEAEKAKRMKEWMKRIKTTASEDEQEEMANAIITILQSWIFS |  |  | Kd [7]: 33.5 nM |
| Neoleukin-4 (i.e. IL4_G2_neo2_40_1F_seq36_S11_MIF) (designed binder, also called Neo-4) PKKKIQIMAEEALKDALSILNIVKTNSPPAEEQLERFAKRFERNLWGIARLFESGDQKDEAEKAKRMIEWMKRIKTTASEDEQEEMANAIITILQSWFFS |  |  | binding result [8]: binds; binding result [9]: binds |

Reference: US20200317744A1 (published 2020)
